OD450, clone binding with PD-1, OD450, PD-L1 binding with PD-1 and ELISA (OD) data for twelve molecules are collected here from patent EP4269437A1.

In assay [1] the target is PD-1 (UniProt Q15116). Description: ELISA, TG1 supernatant on coated PD-1, anti-c-myc HRP.
Target sequence in this assay (Q15116 25-170 limits assumed): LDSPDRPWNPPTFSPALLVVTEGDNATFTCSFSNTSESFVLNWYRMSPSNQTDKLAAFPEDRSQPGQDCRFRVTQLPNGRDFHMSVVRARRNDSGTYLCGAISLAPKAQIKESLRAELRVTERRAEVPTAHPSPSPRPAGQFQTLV
For assay [2], the target named is PD-1 (UniProt Q15116). Description: blocking ELISA, clone supernatant, competitor PD-L1.hFc detected with anti-human Fc HRP.
Target sequence in this assay (Q15116 25-170 limits assumed): as above
For assay [3], the target named is cynomolgus monkey PD-1 protein (cynomolgus monkey) (UniProt B0LAJ3). The experiment in a line: ELISA on coated protein, anti-human Fc HRP.
Sequence of cynomolgus monkey PD-1 protein (cynomolgus monkey) (B0LAJ3 entry or part of it limits assumed): as the sequence (Q15116 25-170 limits assumed) above, with D2E, P10A, V19L, T35A, Q75R, T144A counted along it
For assay [4], the target named is PD-1 (CD28 family protein, ACROBiosystems) (UniProt Q15116). Description: ELISA on coated protein, anti-human Fc HRP.
Sequence of PD-1 (CD28 family protein, ACROBiosystems) (Q15116 25-167 limits assumed): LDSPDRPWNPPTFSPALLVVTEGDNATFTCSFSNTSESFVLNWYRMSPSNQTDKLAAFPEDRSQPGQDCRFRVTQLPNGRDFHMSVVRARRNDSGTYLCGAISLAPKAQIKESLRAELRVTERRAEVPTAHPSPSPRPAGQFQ
The target of assay [5] is PD-1 (UniProt Q15116). Description: ELISA on coated protein, anti-human Fc HRP.
Target sequence in this assay (Q15116 25-167 limits assumed): as above

Values joined by “and” are separate entries in the source; they are usually repeats but may differ in a detail not shown here. Identical values can stand only once.

B1: NB218 (VHH)
VHH: QLQLVESGGGLVQAGDSLRLSCAASGRTFSSIAMGWFRQAPGKEREFVAAISRSGGSAGYADSVKDRSTIVRDNTKNTVYLQMNSLKPEDTAVYFCAASDYDFCSTHGCYDYWGQGTQVTISS
The molecule B1 showed an OD450, clone binding with PD-1 in the assay with PD-1 [1] of 2.62 OD450. Further, the OD450, PD-L1 binding with PD-1 with PD-1 [2] was determined as 2.32 OD450.

B2: NB182 (Fc fusion, not shown: a dimerising Fc or GST)
heavy: QVQLVESGGGLVQAGGSLRLSCAASGDTSFISAAGWYRQAPGKERELVAAITNTGITYYPDSVKGRFTISRDNAKNTVYLQMNNLKPEDTAVYYCNAGAPPPGGLGYDESDYWGQGTQVTVSS
Consider B2, for which the ELISA (OD) is 2.07 OD and 2.08 OD and 1.95 OD in assay [3]; 2.06 OD and 2.09 OD and 2.29 OD in assay [4]; 2.17 OD and 2.13 OD and 2.1 OD with PD-1 [5]. In addition, in the assay with PD-1 [1], the OD450, clone binding with PD-1 was 3.08 OD450. Besides, in the assay with PD-1 [2], the OD450, PD-L1 binding with PD-1 came out at 0.213 OD450.

B3: NB220 (VHH)
VHH: QVQLQESGGGLLQAGDSLRLSCIVSGRTFSSYAIGWFRQAPGKEREFVAGINWSGRSQYYSESVKDRFTVSIDNAKNTVYLQMNSLKPEDTAVYYCAAERHLGVPTVRDDEYDDWGQGTQVTVSS
B3 registered an OD450, clone binding with PD-1 with PD-1 [1] of 2.38 OD450. In addition, the OD450, PD-L1 binding with PD-1 with PD-1 [2] worked out at 2.21 OD450.

B4: NB202 (VHH)
VHH: EVQVVESGGGLVQAGGSLRLSCTASGDTRLASAMGWYRQAPGKERELVAAITNSGLTYYADSVEGRFTISRDSAKNTVYLQMNSLKPEDTAVYYCNAGAPPPGGLGYDESDYWGQGTQVTVSS
B4 displayed an OD450, clone binding with PD-1 with PD-1 [1] of 3.04 OD450. The molecule further yielded an OD450, PD-L1 binding with PD-1 in the assay with PD-1 [2] of 0.723 OD450.

B5: NB209 (VHH)
VHH: EVQVVESGGGLVQTGGSLRLSCAASGDTALFSAVGWYRQAPGKERELVAALTNTGITYYADSVEGRFTIFRDNAKNTVYLQMNSLKPEDTAVYYCNAGAPPPGGLGYDESDYWGQGTQVTVSS
In turn, B5 gave an OD450, clone binding with PD-1 in the assay with PD-1 [1] of 3.22 OD450. Besides, in the assay with PD-1 [2], the OD450, PD-L1 binding with PD-1 stood at 2.04 OD450.

B6: NB197 (VHH)
VHH: QVQLQESGGGLVQPGGSLRLSCAASGFTLDDHSIGWFRQAPGKEREPVSCISTSDGRTYYEDSVKGRFTISRDKAKNTVYLQMDSLKPEDTAVYYCTTDVACYSDYDPSFRFWGQGTQVTVSS
B6 had an OD450, clone binding with PD-1 in the assay with PD-1 [1] of 2.66 OD450. The molecule also came in with an OD450, PD-L1 binding with PD-1 with PD-1 [2] of 2.27 OD450.

B7: NB211 (VHH)
VHH: EVQVVETGGGLAQAGGSLRLSCAASGRTFSGYTVGWYRQSPGKEREFVAAISYSGGSTDYADSVKGRFTISRDNANNTVYLQMGSLKAEDTAVYYCNRVIRGTRDPSIYYVMDYWGKGTLVTVSS
In the assay with PD-1 [1], B7 returned an OD450, clone binding with PD-1 of 2.71 OD450. Moreover, the OD450, PD-L1 binding with PD-1 with PD-1 [2] was determined as 2.21 OD450.

B8: NB194 (Fc fusion, not shown: a dimerising Fc or GST)
heavy: QVQLVETGGGLVRAGGSLRLSCTASGRPFSIYDMGWFRQAPDKERESVAVINLSRGDTYYADSVKGRFTISLDSAKNTVYLQMNSLKPEDTAVYSCGVDRRQYGLGIPPLADHWGQGTQVTVSS
Consider B8, for which the ELISA (OD) in assay [3] is 2.23 OD and 2.17 OD and 2.1 OD; in assay [4], 2.03 OD and 1.96 OD and 2.27 OD; with PD-1 [5] it was 2.22 OD and 1.95 OD and 2.11 OD. Moreover, in the assay with PD-1 [1], the OD450, clone binding with PD-1 came to 2.83 OD450. The molecule further gave an OD450, PD-L1 binding with PD-1 in the assay with PD-1 [2] of 0.152 OD450.

B9: NB215 (VHH)
VHH: EVQVVESGGGLVQAGDSLRLSCAASGGTISGYEMGWFRQAPGKEREFVAGISRNGRSTGYSDSAKDRFTISRDNAKNTVYLQMNSLKPEDTAVYYCAAGLKADYGDSYVDTSTRNYNYWGQGTQVTVSS
On to B9, for which, in the assay with PD-1 [1], the OD450, clone binding with PD-1 turned out to be 3.29 OD450. The molecule also returned an OD450, PD-L1 binding with PD-1 with PD-1 [2] of 1.27 OD450.

B10: NB200 (VHH)
VHH: QVQLVESGGGLVQAGGSLTLSCAASGRTFNSYAMGWFRQAPGKEREFVAAISQNGGSQGYAEAVKDRFTISRDNTNKVVALQMNSLKPEDTAAYYCAADGDASDRSYAPPRDYEYEYWGQGTQVTVSS
Consider B10, for which, in the assay with PD-1 [1], the OD450, clone binding with PD-1 turned out to be 2.31 OD450. Further, the OD450, PD-L1 binding with PD-1 in the assay with PD-1 [2] was found to be 2.48 OD450.

B11: NB205 (VHH)
VHH: EVQLVESGGGLVQVGDSLRLSCAASGRTFSSVPMGWFRQAPGNQREFVAAISKSGGSAGYADSVKDRSTISRDNAKNTIYLQMNSLKPEDTAVYYCAASSFDFCSTHGCYDYWGQGTQVTISS
B11 showed an OD450, clone binding with PD-1 with PD-1 [1] of 2.25 OD450. In the assay with PD-1 [2], the OD450, PD-L1 binding with PD-1 is 2.2 OD450.

B12: NB216 (VHH)
VHH: QVQLVESGGGLVRAGDSLTLSCAASGRTFSSVPMGWFRQAPGNQREFVAAISKSGGSAGYADSVKDRSTISRDNAKNTIYLQMNSLKPEDTAVYYCAASSYDFCSTHGCYDYWGQGTQVTISS
In turn, B12 came in with an OD450, clone binding with PD-1 in the assay with PD-1 [1] of 2.75 OD450. Besides, the OD450, PD-L1 binding with PD-1 with PD-1 [2] stood at 2.45 OD450.
